# Measured values taken from patent publication US20240076386A1 (Pfizer, published 2024).
# T1: cynomolgus monkey E-selectin extracellular domain with 10 His purification tail (cynomolgus monkey, UniProt P16581 22-554 (human entry))
# T1 construct: also called cynomolgus E-selectin; truncated cynomolgus monkey E-selectin
# T1 chain: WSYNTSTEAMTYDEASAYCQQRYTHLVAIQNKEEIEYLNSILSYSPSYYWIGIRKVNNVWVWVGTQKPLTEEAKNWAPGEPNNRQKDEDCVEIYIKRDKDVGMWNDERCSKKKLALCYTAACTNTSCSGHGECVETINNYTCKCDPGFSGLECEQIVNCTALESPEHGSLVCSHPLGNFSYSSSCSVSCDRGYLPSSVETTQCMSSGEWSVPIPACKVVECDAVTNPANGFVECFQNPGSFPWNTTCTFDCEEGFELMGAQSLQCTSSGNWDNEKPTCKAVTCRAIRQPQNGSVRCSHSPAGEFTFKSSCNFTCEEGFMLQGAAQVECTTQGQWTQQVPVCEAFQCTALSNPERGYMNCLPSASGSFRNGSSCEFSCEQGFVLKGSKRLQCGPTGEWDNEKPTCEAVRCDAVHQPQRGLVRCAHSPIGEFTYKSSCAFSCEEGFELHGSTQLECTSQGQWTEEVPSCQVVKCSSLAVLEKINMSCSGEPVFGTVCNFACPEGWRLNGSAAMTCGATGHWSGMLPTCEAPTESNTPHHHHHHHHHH
# T2: soluble recombinant human P-selectin (human, UniProt P16109 42-771, limits assumed)
# T2 sequence (looked up): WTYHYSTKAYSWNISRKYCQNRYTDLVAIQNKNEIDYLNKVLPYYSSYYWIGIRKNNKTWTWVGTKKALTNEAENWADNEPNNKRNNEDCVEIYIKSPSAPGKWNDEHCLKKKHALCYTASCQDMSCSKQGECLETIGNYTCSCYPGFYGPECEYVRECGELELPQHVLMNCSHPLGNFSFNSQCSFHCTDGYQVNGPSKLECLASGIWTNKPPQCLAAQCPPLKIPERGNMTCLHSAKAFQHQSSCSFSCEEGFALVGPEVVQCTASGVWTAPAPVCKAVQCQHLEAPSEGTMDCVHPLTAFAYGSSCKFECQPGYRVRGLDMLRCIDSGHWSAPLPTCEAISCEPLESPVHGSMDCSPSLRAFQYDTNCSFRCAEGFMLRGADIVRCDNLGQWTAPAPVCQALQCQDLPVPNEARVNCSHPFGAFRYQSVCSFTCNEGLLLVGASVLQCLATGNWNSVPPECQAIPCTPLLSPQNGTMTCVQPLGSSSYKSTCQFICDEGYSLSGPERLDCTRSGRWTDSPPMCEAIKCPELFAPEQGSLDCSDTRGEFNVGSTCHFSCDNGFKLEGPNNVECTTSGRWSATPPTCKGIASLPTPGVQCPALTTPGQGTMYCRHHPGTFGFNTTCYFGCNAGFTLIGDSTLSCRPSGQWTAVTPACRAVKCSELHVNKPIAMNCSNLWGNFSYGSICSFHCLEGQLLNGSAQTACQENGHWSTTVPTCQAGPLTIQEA
# Biological target: T1, cynomolgus monkey E-selectin …
# Test: SPR, antibody captured, E-selectin analyte
# Procedure: To characterize binding of antibodies to human, cynomolgus monkey, and mouse E-selectin, an antibody was diluted to 0.5 μg/mL in HBS-EP+ and captured by the anti-human IgG immobilized on flow cells 2, 3 and 4 for 30 seconds to 1 minute at a flow rate of 10 μL/minute to achieve a capture level of 70 to 300 RU. Flow cell 1 was used as a reference surface. […] HBS-EP+ buffer cycles collected for each captured antibody were used for double-referencing (Myszka D G. J. Mol. Recognition 1999; 12(5):279-84). At the end of each cycle, the entire anti-IgG surface was regenerated by a 30 second pulse of 3 M MgCl₂ and a 30 second pulse of ionic buffer (1.83 M MgCl₂, 0.92 M Urea, 1.83 M Guanidine HCl, pH 7.4) (Andersson K. Analy. Chem. 1999; 71(13): 2475-81). Kinetic assays were conducted at 25° C. at a collection rate of 10 Hertz (Hz) on a BIAcore™ T200 instrument (GE Healthcare). Rate constants and affinities were determined by fitting the data to a 1:1 binding model in BIAcore™ T200 Evaluation software version 3.0 (GE Healthcare).
Kd,koff,kon,t½,Binder
244 nM,0.0374 s⁻¹,154000 M⁻¹ s⁻¹,18.5 s,"anti-E-selectin antibody 0159 chimera (antibody, human IgG1, kappa, V domains shown, rat VH/VL on effector-null human IgG1 and human kappa) VH: EVQLQQSGAELGKPGTSVKLSCKVSGYNIRSTYMHWVSQRPGKGLEWIGRIDPANGNTIYAEKFKRKATLTADTSSNTAYMQLSQLKSDDRAIYFCAMEVRVSFEYWGQGVMVTVSS VL: DIQMTQSPSFLSASVGDRVTINCKASQNINKYLDWYQQKLGEGPKLLIYYTNNLHTGIPSRFSGSGSGTDFTLTISSLQPEDVATYFCLQHDSGYTFGAGTKLELKR"
492 nM,0.0564 s⁻¹,115000 M⁻¹ s⁻¹,12.3 s,"anti-E-selectin antibody 0170 chimera (antibody, human IgG1, kappa, V domains shown, rat VH/VL on effector-null human IgG1 and human kappa) VH: EVQLQQSGAELGKPGTSVKLSCKVSGYSIRSTYMHWVNQRPGKGLEWVGRIDPANGNTIYAERFKNKATLTADTSSNTAYMQLSQLKSDDTAIYFCAVEILGIFDYWGQGVMVTVSS VL: DIQMTQSPSFLSASVGDRVTINCKASQNIDKYLDWYQQKLGEAPKLLMYNTNSLHTGIPSRFSGSGSGTDFTLTISSLQPEDVATYFCLQHNSGYTFGAGTKLELKR"
3140 nM,0.749 s⁻¹,245000 M⁻¹ s⁻¹,0.93 s,"anti-E-selectin antibody 0180 chimera (antibody, human IgG1, kappa, V domains shown, rat VH/VL on effector-null human IgG1 and human kappa) VH: EVQLQQSGAELGKPGTSVKLSCKVSGYKIRSSYMHWVNQRPGKGLEWIGRIDPANGNTIYGDKFKSKATLTSDTSSNTAYIQLSQLKSDDTAIYFCAIDIGTTFDYWGQGVMVTVSS VL: DIQMTQSPSFLSASVGDRVTINCKASQHINRYLNWYQQKLGEAPKLLIYDANNLQTGIPSRFSGSGSGTDFTLTISSLQPEDVATYFCLQHNSWPNTFGAGTKLELKR"
45.4 nM,0.012 s⁻¹,265000 M⁻¹ s⁻¹,57.8 s,"anti-E-selectin antibody 0164 chimera (antibody, human IgG1, kappa, V domains shown, rat VH/VL on effector-null human IgG1 and human kappa) VH: EVQLQQSGAEFGKPGTSVKLSCKVSGYNIRSSYMHWVNQRPGKGLEWIGRIDPANGNTIYAEKFKIKAILTADSSSNTAYMQLSQLKSDDTAIYFCAMDLYSTSEYWGQGVMVTVSS VL: DIQMTQSPSFLSASVGDRVTINCKTSQNINRYLNWYQQKLGEAPKLLIYNANSLQTGIPSRFSASGSGTDFTLTINSLQPEDVATYFCLQDNSWPLTFGSGTKLEIKR"
45.8 nM,0.00377 s⁻¹,82400 M⁻¹ s⁻¹,184 s,"anti-E-selectin antibody 0039 chimera (antibody, human IgG1, kappa, V domains shown, rat VH/VL on effector-null human IgG1 and human kappa) VH: QVQLKETGPGLVQPTQTLSITCTVSGFSLTGYYMQWVRQTPGKGLEWMGFIRSSGSTEYNSEFKSRLSISRDTSKNQVFLKMNSLKTEDTGVYYCARCPYKYSSFVYVGVMDAWGQGAPVTVSS VL: EIVMTQSPTSMSTSIGERVTLNCKASQTVGINVDWYQQTPGQPPKLLIYGASNRHTGVPDRFTGSGFGRDFTLTISNVEAEDLAVYCCLQYGSIPHTFGPGTKLELKR"

# Biological target: T2, soluble recombinant human P-selectin
# Test: direct binding ELISA on immobilized human P-selectin, absorbance at 450 nm
# Procedure: Recombinant histidine tagged human P-, E- or L-selectin (Sino Biologicals), mouse E-selectin (Sino Biologicals), rat E-selectin (Sino Biologicals) and Cynomolgus monkey E-selectin (Sino Biologicals) stock solutions were prepared to a final concentration of 1 μg/mL in phosphate buffered saline without calcium and magnesium. Controls included an L-selectin directed antibody (BioLegend; 304811) or P-selectin directed antibody or a negative control IgG. One hundred μL per well of the diluted recombinant selectin proteins were added into a Ni-NTA HisSorb 96 well plate (Qiagen; 35061). Plates were incubated on an orbital shaker at room temperature for 2 hours. Following the incubation, the plates were washed 3 times with 200 μL of wash buffer (50 mM TRIS [trisaminomethane]; 150 mM sodium chloride; 0.05% polysorbate 20, pH 7.4). To decrease nonspecific binding, plates were treated with 200 μL of blocking buffer (BD Opteia buffer; 555213; BD Biosciences), incubated on an orbital shaker for 1 hour at room temperature and washed as described above. […] One hundred μL specific detection antibodies (described below) were added and incubated for 1 hour: [0556] […] Anti L-selectin and anti-rat-E-selectin antibodies were detected using 1 to 25000 dilution of Peroxidase-conjugated AffiniPure Goat Anti-Mouse IgG (H+L); (Jackson ImnnunoResearch Lab).
# Plates were washed and 100 μL per well of 1-Step Ultra TMB substrate (Thermo Scientific) was added and incubated for 5 minutes at room temperature. Reactions were stopped with 100 μL of 2 M sulfuric acid and absorbance read at 450 nm (Spectramax M5e).
row,binding result,Binder
1,no binding (tested: 10 ug/ml),"humanized anti-E-selectin antibody 0841 (antibody, human IgG1, kappa, V domains shown, effector-null human IgG1, kappa) VH: EVQLVESGGGLVQPGGSLRLSCAASGYNIRSSYMHWVRQAPGKGLEWVARIDPANGNTIYAEKFKIRFTISADNAKNSAYLQMNSLRAEDTAVYYCAMDLYSTSEYWGQGTLVTVSS VL: DIQMTQSPSSLSASVGDRVTITCKTSQNINRYLNWYQQKPGKAPKLLIYNANSLQTGVPSRFSGSGSGTDFTLTISSLQPEDFATYFCLQDNSWPLTFGQGTKVEIKR"
2,no binding (tested: 10 ug/ml),"optimized anti-E-selectin antibody 1282 (antibody, human IgG1, kappa, V domains shown, effector-null human IgG1, kappa) VH: EVQLVESGGGLVQPGGSLRLSCAASGYAIRSAYMHWVRQAPGKGLEWVARIDPANGNTIYVDSVEGRFTISADNAKNSAYLQMNSLRAEDTAVYYCAMDLYSTSEYWGQGTLVTVSS VL: DIQMTQSPSSLSASVGDRVTITCKTSQNIERYLNWYQQKPGKAPKLLIYAASSLQSGVPSRFSGSGSGTDFTLTISSLQPEDFATYFCLQDNAWPLTFGQGTKVEIKR"
3,no binding (tested: 10 ug/ml),"optimized anti-E-selectin antibody 1444 (antibody, human IgG1, kappa, V domains shown, effector-null human IgG1, kappa) VH: EVQLVESGGGLVQPGGSLRLSCAASGYAIRSAYMHWVRQAPGKGLEWVARIDPANGNTIYVDSVTGRFTISADNAKNSAYLQMNSLRAEDTAVYYCAMDLYSTSEYWGQGTLVTVSS VL: DIQMTQSPSSLSASVGDRVTITCKTSQNIERYLNWYQQKPGKAPKLLIYAASSLQSGVPSRFSGSGSGTDFTLTISSLQPEDFATYFCLQDNAWPLTFGQGTKVEIKR"
4,no binding (tested: 10 ug/ml),"optimized anti-E-selectin antibody 1284 (antibody, human IgG1, kappa, V domains shown, effector-null human IgG1, kappa) VH: EVQLVESGGGLVQPGGSLRLSCAASGYAIRSAYMHWVRQAPGKGLEWVARIDPANGNTIYVESVEGRFTISADNAKNSAYLQMNSLRAEDTAVYYCAMDLYSTSEYWGQGTLVTVSS VL: DIQMTQSPSSLSASVGDRVTITCKTSQNIERYLNWYQQKPGKAPKLLIYAASSLQSGVPSRFSGSGSGTDFTLTISSLQPEDFATYFCLQDNAWPLTFGQGTKVEIKR"
5,no binding (tested: 10 ug/ml),"optimized anti-E-selectin antibody 1448 (antibody, human IgG1, kappa, V domains shown, effector-null human IgG1, kappa) VH: EVQLVESGGGLVQPGGSLRLSCAASGYAIRSAYMHWVRQAPGKGLEWVARIDPANGNTIYVDSVKERFTISADNAKNSAYLQMNSLRAEDTAVYYCAMDLYSTSEYWGQGTLVTVSS VL: DIQMTQSPSSLSASVGDRVTITCKTSQNIERYLNWYQQKPGKAPKLLIYAASSLQSGVPSRFSGSGSGTDFTLTISSLQPEDFATYFCLQDNAWPLTFGQGTKVEIKR"
